The target of assay [1] is hemagglutinin of influenza A virus A/Panama/2007/1999 H3N2 (influenza A virus A/Panama/2007/1999 H3N2). The assay can be described thus: cell-based or functional assay.
Assay [2] deals with hemagglutinin of influenza A virus A/Mute swan/Germany/R901/06 K3141 H7N1 (influenza A virus A/Mute swan/Germany/R901/06 K3141 H7N1).
For assay [3] the target is unchanged. The assay can be described thus: cell-based or functional assay.

No end group written: not given here.

The molecule KKKKFYDYDVFY (not fully specified (C-terminus)) [reference peptide with SEQ ID NO:1 (FYDYDVFY), N-terminal (Lys)4, C-terminal amide] returned a Mean Ki(HAI), hemagglutination inhibition assay, human erythrocytes in assay [1] of 16 µM. The molecule further came in with an IC50 in assay [2] of 40 µM. In assay [3], this molecule gave a Hemagglutination inhibition (IC50, HAI) of 47 µM and a Mean Ki(HAI), hemagglutination inhibition assay, turkey erythrocytes of 62.5 µM.
The corresponding values for KKKKFYGYDVFF (not fully specified (C-terminus)) [peptide with SEQ ID NO:28, N-terminal (Lys)4, C-terminal amide] are 0.1 µM, 30 µM, 23 µM and 36.5 µM.

For orientation: IC50 means the concentration that gives 50% inhibition.
